From patent US20180362668
Where “and” joins values, the source holds several entries; their conditions need not be identical. Identical values can stand only once.

Tests used:
[1] = biological target: T1, VhH-Fc fusion protein chain B with T366S + L368A + Y407V + F405K + E357A; assay: non-reducing SDS-PAGE densitometry of Protein A-purified co-transfection product; chain A:chain B vectors 4:1
[2] = biological target: T1, VhH-Fc fusion protein chain B with …; assay: non-reducing SDS-PAGE densitometry of Protein A-purified co-transfection product; chain A:chain B vectors 1:4
[3] = biological target: Fc protein chain B with D356C + T366S + L368A + Y407V; assay: non-reducing SDS-PAGE of Protein A-purified co-transfection product; chain A:chain B vectors 4:1
[4] = biological target: Fc protein chain B with D356C + T366S + L368A + Y407V; assay: non-reducing SDS-PAGE of Protein A-purified co-transfection product; chain A:chain B vectors 1:4
[5] = biological target: T2, VhH-Fc fusion protein chain B with T366S + L368A + Y407V + K409A + K392D; assay: non-reducing SDS-PAGE densitometry of Protein A-purified co-transfection product; chain A:chain B vectors 4:1
[6] = biological target: T2, VhH-Fc fusion protein chain B with …; assay: non-reducing SDS-PAGE densitometry of Protein A-purified co-transfection product; chain A:chain B vectors 1:4
[7] = biological target: Fc protein chain B with D356C + T366S + L368A + Y407V; assay: non-reducing SDS-PAGE densitometry of Protein A-purified co-transfection product; chain A:chain B vectors 1:1
[8] = biological target: T3, VhH-Fc fusion protein chain B with D356C + T366S + L368A + Y407V; assay: non-reducing SDS-PAGE densitometry of Protein A-purified co-transfection product; chain A:chain B vectors 4:1
[9] = biological target: T3, VhH-Fc fusion protein chain B with …; assay: non-reducing SDS-PAGE densitometry of Protein A-purified co-transfection product; chain A:chain B vectors 1:4
[10] = biological target: T4, VhH-Fc fusion protein chain B with T366S + L368G + Y407A + K409A; assay: non-reducing SDS-PAGE densitometry of Protein A-purified co-transfection product; chain A:chain B vectors 4:1
[11] = biological target: T4, VhH-Fc fusion protein chain B with …; assay: non-reducing SDS-PAGE densitometry of Protein A-purified co-transfection product; chain A:chain B vectors 1:4
[12] = biological target: Fc protein chain B with D356C + T366S + L368A + Y407V + F405K; assay: non-reducing SDS-PAGE densitometry of Protein A-purified co-transfection product; chain A:chain B vectors 1:1
[13] = biological target: T5, VhH-Fc fusion protein chain B with T366S + L368A + Y407V + K409A + E357A; assay: non-reducing SDS-PAGE densitometry of Protein A-purified co-transfection product; chain A:chain B vectors 4:1
[14] = biological target: T5, VhH-Fc fusion protein chain B with …; assay: non-reducing SDS-PAGE densitometry of Protein A-purified co-transfection product; chain A:chain B vectors 1:4

B1: ScFv-Fc fusion protein chain A with T366W + K409A + Y349D + S354D (protein)
chain: EVQLLESGGGVVQPGRSLRLSCIASGFTFSSYPMTWVRQAPGKGLEWVASISYDGSYKYKADSMKGRLTISRDNSKNTLYLEMNSLTAEDTAVYYCARTAFFNAYDFWGQGTLVTVSSASTKGPSVGGGGSGGGGSEIVMTQSPATLSVSPGERATLSCRASQSVRSNLAWYQQKPGQAPRLLIYAASTRATGIPARFSGSGSGTEFTLTISSLQSEDFAVYYCQQYNEWFRTSGQGTKVEIKRDKTHTCPPCPAPELLGGPSVFLFPPKPKDTLMISRTPEVTCVVVDVSHENPEVKFNWYVDGVEVHNAKTKPREEQYNSTYRVVSVLTVLHQDWLNGKEYKCKVSNKALPAPIEKTISKAKGQPREPQVDTLPPDRDELTKNQVSLWCLVKGFYPSDIAVEWESNGQPENNYKTTPPVLDSDGSFFLYSALTVDKSRWQQGNVFSCSVMHEALHNHYTQKSLSLSPGK
- ScFv-Fc/VhH-Fc heterodimer (%) [1]: 61%
- ScFv-Fc/VhH-Fc heterodimer (%) [2]: 64%

B2: ScFv-Fc fusion protein chain A with Y349C + T366W (protein)
chain: EVQLLESGGGVVQPGRSLRLSCIASGFTFSSYPMTWVRQAPGKGLEWVASISYDGSYKYKADSMKGRLTISRDNSKNTLYLEMNSLTAEDTAVYYCARTAFFNAYDFWGQGTLVTVSSASTKGPSVGGGGSGGGGSEIVMTQSPATLSVSPGERATLSCRASQSVRSNLAWYQQKPGQAPRLLIYAASTRATGIPARFSGSGSGTEFTLTISSLQSEDFAVYYCQQYNEWFRTSGQGTKVEIKRDKTHTCPPCPAPELLGGPSVFLFPPKPKDTLMISRTPEVTCVVVDVSHENPEVKFNWYVDGVEVHNAKTKPREEQYNSTYRVVSVLTVLHQDWLNGKEYKCKVSNKALPAPIEKTISKAKGQPREPQVCTLPPSRDELTKNQVSLWCLVKGFYPSDIAVEWESNGQPENNYKTTPPVLDSDGSFFLYSKLTVDKSRWQQGNVFSCSVMHEALHNHYTQKSLSLSPGK
- ScFv-Fc/Fc heterodimer (%) [3]: 42%
- ScFv-Fc/Fc heterodimer (%) [4]: 44%

B3: ScFv-Fc fusion protein chain A with T366W + K409A + Y349D (protein)
chain: EVQLLESGGGVVQPGRSLRLSCIASGFTFSSYPMTWVRQAPGKGLEWVASISYDGSYKYKADSMKGRLTISRDNSKNTLYLEMNSLTAEDTAVYYCARTAFFNAYDFWGQGTLVTVSSASTKGPSVGGGGSGGGGSEIVMTQSPATLSVSPGERATLSCRASQSVRSNLAWYQQKPGQAPRLLIYAASTRATGIPARFSGSGSGTEFTLTISSLQSEDFAVYYCQQYNEWFRTSGQGTKVEIKRDKTHTCPPCPAPELLGGPSVFLFPPKPKDTLMISRTPEVTCVVVDVSHENPEVKFNWYVDGVEVHNAKTKPREEQYNSTYRVVSVLTVLHQDWLNGKEYKCKVSNKALPAPIEKTISKAKGQPREPQVDTLPPSRDELTKNQVSLWCLVKGFYPSDIAVEWESNGQPENNYKTTPPVLDSDGSFFLYSALTVDKSRWQQGNVFSCSVMHEALHNHYTQKSLSLSPGK
- ScFv-Fc/VhH-Fc heterodimer (%) [1]: 49%
- ScFv-Fc/VhH-Fc heterodimer (%) [2]: 60%

B4: ScFv-Fc fusion protein chain A with T366W + F405K + D399S (protein)
chain: EVQLLESGGGVVQPGRSLRLSCIASGFTFSSYPMTWVRQAPGKGLEWVASISYDGSYKYKADSMKGRLTISRDNSKNTLYLEMNSLTAEDTAVYYCARTAFFNAYDFWGQGTLVTVSSASTKGPSVGGGGSGGGGSEIVMTQSPATLSVSPGERATLSCRASQSVRSNLAWYQQKPGQAPRLLIYAASTRATGIPARFSGSGSGTEFTLTISSLQSEDFAVYYCQQYNEWFRTSGQGTKVEIKRDKTHTCPPCPAPELLGGPSVFLFPPKPKDTLMISRTPEVTCVVVDVSHENPEVKFNWYVDGVEVHNAKTKPREEQYNSTYRVVSVLTVLHQDWLNGKEYKCKVSNKALPAPIEKTISKAKGQPREPQVYTLPPSRDELTKNQVSLWCLVKGFYPSDIAVEWESNGQPENNYKTTPPVLSSDGSFKLYSKLTVDKSRWQQGNVFSCSVMHEALHNHYTQKSLSLSPGK
- ScFv-Fc/VhH-Fc heterodimer (%) [5]: 66%
- ScFv-Fc/VhH-Fc heterodimer (%) [6]: 69%

B5: ScFv-Fc fusion protein chain A with Y349C + T366W + F405K (protein)
chain: EVQLLESGGGVVQPGRSLRLSCIASGFTFSSYPMTWVRQAPGKGLEWVASISYDGSYKYKADSMKGRLTISRDNSKNTLYLEMNSLTAEDTAVYYCARTAFFNAYDFWGQGTLVTVSSASTKGPSVGGGGSGGGGSEIVMTQSPATLSVSPGERATLSCRASQSVRSNLAWYQQKPGQAPRLLIYAASTRATGIPARFSGSGSGTEFTLTISSLQSEDFAVYYCQQYNEWFRTSGQGTKVEIKRDKTHTCPPCPAPELLGGPSVFLFPPKPKDTLMISRTPEVTCVVVDVSHENPEVKFNWYVDGVEVHNAKTKPREEQYNSTYRVVSVLTVLHQDWLNGKEYKCKVSNKALPAPIEKTISKAKGQPREPQVCTLPPSRDELTKNQVSLWCLVKGFYPSDIAVEWESNGQPENNYKTTPPVLDSDGSFKLYSKLTVDKSRWQQGNVFSCSVMHEALHNHYTQKSLSLSPGK
- ScFv-Fc/Fc heterodimer (%) [7]: 60% and 70%
- ScFv-Fc/VhH-Fc heterodimer (%) [8]: 55%
- ScFv-Fc/Fc heterodimer (%) [3]: 66%
- ScFv-Fc/Fc heterodimer (%) [4]: 49%
- ScFv-Fc/VhH-Fc heterodimer (%) [9]: 39%

B6: ScFv-Fc fusion protein chain A with T366W + F405K (protein)
chain: EVQLLESGGGVVQPGRSLRLSCIASGFTFSSYPMTWVRQAPGKGLEWVASISYDGSYKYKADSMKGRLTISRDNSKNTLYLEMNSLTAEDTAVYYCARTAFFNAYDFWGQGTLVTVSSASTKGPSVGGGGSGGGGSEIVMTQSPATLSVSPGERATLSCRASQSVRSNLAWYQQKPGQAPRLLIYAASTRATGIPARFSGSGSGTEFTLTISSLQSEDFAVYYCQQYNEWFRTSGQGTKVEIKRDKTHTCPPCPAPELLGGPSVFLFPPKPKDTLMISRTPEVTCVVVDVSHENPEVKFNWYVDGVEVHNAKTKPREEQYNSTYRVVSVLTVLHQDWLNGKEYKCKVSNKALPAPIEKTISKAKGQPREPQVYTLPPSRDELTKNQVSLWCLVKGFYPSDIAVEWESNGQPENNYKTTPPVLDSDGSFKLYSKLTVDKSRWQQGNVFSCSVMHEALHNHYTQKSLSLSPGK
- ScFv-Fc/VhH-Fc heterodimer (%) [10]: 77%
- ScFv-Fc/VhH-Fc heterodimer (%) [11]: 93%

B7: ScFv-Fc fusion protein chain A with Y349C + T366W + K409A + L368E (protein)
chain: EVQLLESGGGVVQPGRSLRLSCIASGFTFSSYPMTWVRQAPGKGLEWVASISYDGSYKYKADSMKGRLTISRDNSKNTLYLEMNSLTAEDTAVYYCARTAFFNAYDFWGQGTLVTVSSASTKGPSVGGGGSGGGGSEIVMTQSPATLSVSPGERATLSCRASQSVRSNLAWYQQKPGQAPRLLIYAASTRATGIPARFSGSGSGTEFTLTISSLQSEDFAVYYCQQYNEWFRTSGQGTKVEIKRDKTHTCPPCPAPELLGGPSVFLFPPKPKDTLMISRTPEVTCVVVDVSHENPEVKFNWYVDGVEVHNAKTKPREEQYNSTYRVVSVLTVLHQDWLNGKEYKCKVSNKALPAPIEKTISKAKGQPREPQVCTLPPSRDELTKNQVSLWCEVKGFYPSDIAVEWESNGQPENNYKTTPPVLDSDGSFFLYSALTVDKSRWQQGNVFSCSVMHEALHNHYTQKSLSLSPGK
- ScFv-Fc/Fc heterodimer (%) [12]: 30%

B8: ScFv-Fc fusion protein chain A with T366W + F405K + Y349D + S354D (protein)
chain: EVQLLESGGGVVQPGRSLRLSCIASGFTFSSYPMTWVRQAPGKGLEWVASISYDGSYKYKADSMKGRLTISRDNSKNTLYLEMNSLTAEDTAVYYCARTAFFNAYDFWGQGTLVTVSSASTKGPSVGGGGSGGGGSEIVMTQSPATLSVSPGERATLSCRASQSVRSNLAWYQQKPGQAPRLLIYAASTRATGIPARFSGSGSGTEFTLTISSLQSEDFAVYYCQQYNEWFRTSGQGTKVEIKRDKTHTCPPCPAPELLGGPSVFLFPPKPKDTLMISRTPEVTCVVVDVSHENPEVKFNWYVDGVEVHNAKTKPREEQYNSTYRVVSVLTVLHQDWLNGKEYKCKVSNKALPAPIEKTISKAKGQPREPQVDTLPPDRDELTKNQVSLWCLVKGFYPSDIAVEWESNGQPENNYKTTPPVLDSDGSFKLYSKLTVDKSRWQQGNVFSCSVMHEALHNHYTQKSLSLSPGK
- ScFv-Fc/VhH-Fc heterodimer (%) [13]: 61%
- ScFv-Fc/VhH-Fc heterodimer (%) [14]: 86%
